From PMC12559329

B1: (CAG)4 loop DNA (dsDNA)
DNA 1: ACGTCAGAGTCGCTGCGCTCAGTCGTTCAACTGCTCAGCAGCAGCAGTAACTATCGTCTTGAATCCAACCCGGTAAGATACG
DNA 2: GCGTATCTTACCGGGTTGGATTCAAGACGATAGTTAAGCAGTTGAACGACTGAGCGCAGCGACTCTGACGT
modifications: biotin on both strands (position in bold, not recoverable)
B2: (CAG)4 loop DNA with nick 3 nt downstream of loop (dsDNA)
DNA 1: ACGTCAGAGTCGCTGCGCTCAGTCGTTCAACTGCTCAGCAGCAGCAGTAA
DNA 2: TAACTATCGTCTTGAATCCAACCCGGTAAGATACG
DNA 3: B1 DNA 2
modifications: biotin on bottom strand; others unclear (bold lost)

Molecular target: MutSβ (MSH2-MSH3) (human, UniProt P43246;P20585 1-934;1-1137)
Experiment: EMSA; 2 mM ATP, 5 mM Mg2+, pUC19 competitor; 25 mM Tris-acetate pH 7.5, 1 mM DTT, 2 mM ATP, 5 mM MgCl2, 0.1 mg/ml albumin, 0.5 nM DNA, 3 ng/µl pUC19 competitor, 37 °C 30 min; native 6% PAGE
Settings: protein: recombinant, tags: N-terminal FLAG on MSH2, N-terminal 6xHis on MSH3, copies: 1;1, label: 3'-32P on bottom strand (TdT, dCTP), 5' overhang 1 nt (G) on bottom

Binder | binding result (12-nt extrahelical (CAG)4 loop in top strand) | binding result (12-nt loop and nick in top strand, as printed both left and right oligos contain the TAA at the junction (3 nt redundant))
B1 | binds | 
B2 |  | binds
